Measurements from patent US20220259593A1, “CONTROL OF MAMMALIAN GENE DOSAGE USING CRISPR” (The Regents of the University of California, priority 2019, published 2022).
Changes are numbered by the printed parent chain.

B1: cr691 (nucleic acid)
guide: GTTTAAGAGCTAAGCTGGAAACAGCATAGCAAGTTTAAATAAGGCTAGTCCGTTATCAACTTGAAAAAGTGGGCCCGAGTCGGGCCT
modifications: listed as DNA, chemistry not fully specified
B2: cr476 (nucleic acid)
guide: B1 guide with G72C, C74A, G84T, C86G
modifications: listed as DNA, chemistry not fully specified
B3: cr821 (nucleic acid)
guide: B1 guide with A26G, G73C, C74A, G84T, C85G
modifications: listed as DNA, chemistry not fully specified
B4: cr047 (nucleic acid)
guide: B1 guide with A5T, A8T, G73C, C74A, G84T, C85G
modifications: listed as DNA, chemistry not fully specified
B5: cr063 (nucleic acid)
guide: B1 guide with G1A, A5T, G73C, C74A, G84T, C85G
modifications: listed as DNA, chemistry not fully specified
B6: cr274 (nucleic acid)
guide: B1 guide with G33C, T61C, A68G, G73C, C74A, G84T, C85G
modifications: listed as DNA, chemistry not fully specified
B7: cr490 (nucleic acid)
guide: B1 guide with C60A, G69T, G73C, C74G, G77C, C81G, G84C, C85G
modifications: listed as DNA, chemistry not fully specified
B8: cr259 (nucleic acid)
guide: B1 guide with C57G, A58T, G63C, G73C, C74A, G84T, C85G
modifications: listed as DNA, chemistry not fully specified
B9: cr395 (nucleic acid)
guide: B1 guide with A42T, G71A, G73C, C74A, G79A, G84T, C85G
modifications: listed as DNA, chemistry not fully specified
B10: cr029 (nucleic acid)
guide: B1 guide with A5C, A8G, G73C, C74A, G84T, C85G
modifications: listed as DNA, chemistry not fully specified
B11: cr447 (nucleic acid)
guide: B1 guide with T34C, G73C, C74A, G77A, C81T, G84T, C85G
modifications: listed as DNA, chemistry not fully specified
B12: cr221 (nucleic acid)
guide: B1 guide with G33A, C57G, A65G, G73C, C74A, G84T, C85G
modifications: listed as DNA, chemistry not fully specified
B13: cr229 (nucleic acid)
guide: B1 guide with A42C, G73C, C74A, G84T, C85G
modifications: listed as DNA, chemistry not fully specified
B14: cr089 (nucleic acid)
guide: B1 guide with A6T, G7A, G73C, C74A, G84T, C85G
modifications: listed as DNA, chemistry not fully specified
B15: cr502 (nucleic acid)
guide: B1 guide with G73C, C74A, G83C, G84T, C85G
modifications: listed as DNA, chemistry not fully specified
B16: cr618 (nucleic acid)
guide: B1 guide with A39G, G73C, C74A, G84T, C85G
modifications: listed as DNA, chemistry not fully specified
B17: cr761 (nucleic acid)
guide: B1 guide with A31T, A55G, A58T, G73C, C74A, G84T, C85G
modifications: listed as DNA, chemistry not fully specified
B18: cr808 (nucleic acid)
guide: B1 guide with G43A, C51T, C60A, G69T, G72T, G73C, C74A, G84T, C85G, C86A
modifications: listed as DNA, chemistry not fully specified
B19: cr683 (nucleic acid)
guide: B1 guide with C50T, C57G, G73C, C74A, G84T, C85G
modifications: listed as DNA, chemistry not fully specified
B20: cr544 (nucleic acid)
guide: B1 guide with G33C, T62C, A67G, G73C, C74A, G84T, C85G
modifications: listed as DNA, chemistry not fully specified
B21: cr826 (nucleic acid)
guide: B1 guide with G33T, T49C, A55T, G73C, C74A, G84T, C85G
modifications: listed as DNA, chemistry not fully specified
B22: cr228 (nucleic acid)
guide: B1 guide with C45G, G73C, C74A, G84T, C85G
modifications: listed as DNA, chemistry not fully specified
B23: cr872 (nucleic acid)
guide: B1 guide with G48T, G73C, C74A, G84T, C85G
modifications: listed as DNA, chemistry not fully specified
B24: cr390 (nucleic acid)
guide: B1 guide with G33A, G71A, G73C, C74A, G84T, C85G
modifications: listed as DNA, chemistry not fully specified
B25: cr881 (nucleic acid)
guide: B1 guide with G52T, T56A, G73C, C74A, G84T, C85G
modifications: listed as DNA, chemistry not fully specified
B26: cr560 (nucleic acid)
guide: B1 guide with T34C, G73C, C74A, C76T, G82A, G84T, C85G
modifications: listed as DNA, chemistry not fully specified
B27: cr798 (nucleic acid)
guide: B1 guide with C45A, G48T, G73C, C74A, C75T, G77C, C81G, G83A, G84T, C85G
modifications: listed as DNA, chemistry not fully specified
B28: cr075 (nucleic acid)
guide: B1 guide with A5C, G7T, G73C, C74A, G84T, C85G
modifications: listed as DNA, chemistry not fully specified
B29: cr230 (nucleic acid)
guide: B1 guide with G29A, G52A, A66C, G73C, C74A, G84T, C85G
modifications: listed as DNA, chemistry not fully specified
B30: cr091 (nucleic acid)
guide: B1 guide with A5T, G7C, G73C, C74A, G84T, C85G
modifications: listed as DNA, chemistry not fully specified

tested on: K562 CRISPRi cells; experiment: Constant region variant library pooled growth screen, K562; assay type: cell-based, human; conditions: sgRNA constant region variants; activity relative to the original, un-modified constant region cr995
Summary of the method: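 Pooled library transduced into K562 CRISPRi cells in duplicate, puromycin-selected, grown at >2000× coverage and sampled after 4 to 8 days. Phenotypes per targeting sequence:constant region pair were normalized to the unmodified-scaffold pairing to give relative activity.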

Question: With B1 as the molecule, how does the Mean relative activity read?
Answer: 1.038

Question: How did the Mean relative activity turn out when B2 was run?
Answer: 1.039

Question: With B3 as the molecule, how does the Mean relative activity read?
Answer: 1.038

same assay, conditions: sgRNA constant region variants; activity relative to the unmodified constant region cr995

Question: How did the Mean relative activity turn out when B4 was run?
Answer: 0.1686

Question: For B5, which Mean relative activity is on record?
Answer: 0.1565

Question: How did the Mean relative activity turn out when B6 was run?
Answer: 0.1303

Question: Which Mean relative activity does the source give for B7 here?
Answer: 0.1317

Question: Which Mean relative activity does the source give for B8 here?
Answer: 0.1243

Question: B9 was tested. Which Mean relative activity did it give?
Answer: 0.1397

Question: With B10 as the molecule, how does the Mean relative activity read?
Answer: 0.1663

Question: Which Mean relative activity does the source give for B11 here?
Answer: 0.1616

Question: B12 was tested. Which Mean relative activity did it give?
Answer: 0.1553

Question: With B13 as the molecule, how does the Mean relative activity read?
Answer: 0.1478

Question: How did the Mean relative activity turn out when B14 was run?
Answer: 0.1183

Question: B15 was tested. Which Mean relative activity did it give?
Answer: 0.1485

Question: How did the Mean relative activity turn out when B16 was run?
Answer: 0.1571

Question: For B17, which Mean relative activity is on record?
Answer: 0.1369

Question: Which Mean relative activity does the source give for B18 here?
Answer: 0.1417

Question: Which Mean relative activity does the source give for B19 here?
Answer: 0.1568

Question: B20 was tested. Which Mean relative activity did it give?
Answer: 0.1605

Question: Which Mean relative activity does the source give for B21 here?
Answer: 0.1633

Question: How did the Mean relative activity turn out when B22 was run?
Answer: 0.1424

Question: B23 was tested. Which Mean relative activity did it give?
Answer: 0.1317

Question: For B24, which Mean relative activity is on record?
Answer: 0.1354

Question: Which Mean relative activity does the source give for B25 here?
Answer: 0.1367

Question: With B26 as the molecule, how does the Mean relative activity read?
Answer: 0.1347

Question: For B27, which Mean relative activity is on record?
Answer: 0.1361

Question: With B28 as the molecule, how does the Mean relative activity read?
Answer: 0.1521

Question: With B29 as the molecule, how does the Mean relative activity read?
Answer: 0.1598

Question: How did the Mean relative activity turn out when B30 was run?
Answer: 0.1366
